Measurements taken from EP2787008B1 (Samsung Electronics Co., Ltd., dated 2019).

Target: T1, huAbF46-H4-A1 (IgG2 Fc)
T1 construct: Human IgG2 hinge and constant region, human kappa; also called anti-c-Met antibody; biotinylated anti-c-Met antibody
Test: SPR, Biacore (GE healthcare); format not stated

T1 sequence (VH, as listed by the source, chain 1 of 2): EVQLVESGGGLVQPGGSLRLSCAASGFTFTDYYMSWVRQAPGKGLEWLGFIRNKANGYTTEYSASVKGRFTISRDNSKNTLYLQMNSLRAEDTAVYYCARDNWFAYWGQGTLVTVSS
T1 sequence (VL, as listed by the source, chain 2 of 2): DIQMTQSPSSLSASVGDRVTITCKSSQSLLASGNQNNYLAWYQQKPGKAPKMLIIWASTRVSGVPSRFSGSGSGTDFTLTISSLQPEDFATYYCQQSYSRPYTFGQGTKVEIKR

- Kd: 38.4 nM
- koff: 0.0032 s⁻¹
- kon: 85000 M⁻¹ s⁻¹
B1: EW02 (antibody, human IgG1, V domains shown)
VH: EVQLLESGGGLVQPGGSLRLSCAASGFTFSNYAMSWVRQAPGKGLEWVSSISSSGGNTYYADSVKGRFTISRDNSKNTLYLQMNSLGAEDTAVYYCAKYHSVFDYWGQGTLVTVSS
VL: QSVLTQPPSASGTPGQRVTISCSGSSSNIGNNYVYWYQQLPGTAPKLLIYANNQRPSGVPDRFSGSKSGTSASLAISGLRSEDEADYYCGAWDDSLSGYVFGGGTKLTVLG
notes: also called EW02 antibody
